Data on one protein can be found in PMC4635001, “Structural Characterisation of FabG from Yersinia pestis, a Key Component of Bacterial Fatty Acid Synthesis” (PLoS ONE, 2015).

This data set deals with the molecule itself. Nature of the data set: crystal structure.

B1: Yersinia pestis FabG (ketoacyl-acyl carrier protein reductase) (enzyme)
chain: MSFEGKIALVTGASRGIGRAIAELLVERGACVIGTATSEKGAEAISAYLGENGKGLMLNVVDPTSIDTVLATIRAEFGEVDILVNNAGITRDNLLMRMKDDEWQDIIDTNLTSVFRLSKAVMRAMMKKRFGRIITIGSVVGTMGNAGQVNYAAAKAGVIGFSKSLAREVASRGITVNVVAPGFIETDMTRTLTDDQRAGILAQVPANRLGDAKEIASAVAFLASDEASYISGETLHVNGGMYMI
notes: also called YpFabG; YpFabG TMAO
The stoichiometry N is the number of molecules, sites or subunits per partner or assembly. Take B1: the “stoichiometry N” value amounted to 4.
